Assay results reported in paper PMC10897159, “Structural insights into the activation mechanism of antimicrobial GBP1” (The EMBO Journal, 2024).

Key:
[1] = biological target: the molecule itself; assay: cross-linking; BS3 at 20-times molar excess, 20 µM protein, with 200 µM GDP, 300 µM AlCl3, 10 mM NaF (GDP•AlFx); 50 mM HEPES, 150 mM NaCl, 5 mM MgCl2; SDS-PAGE
[2] = biological target: the molecule itself; assay: specific GTPase activity against protein concentration (HPLC), quadratic fit; apparent Kd of dimer formation; non-farnesylated GBP1, 1 mM GTP, 37 °C, 50 mM Tris-HCl pH 7.9, 150 mM NaCl, 5 mM MgCl2; dimer to monomers
[3] = biological target: the molecule itself; assay: SEC; analytical SEC (Superdex 200 5/150), 20 µM protein with 200 µM GDP, 300 µM AlCl3, 10 mM NaF (GDP•AlFx); 50 mM Tris-HCl pH 7.9, 150 mM NaCl, 5 mM MgCl2
[4] = biological target: the molecule itself; assay: light scattering-based polymerization assay; 10 µM farnesylated GBP1, polymerization started with 1 mM GTP (for the pivot point mutants also with LPS added); 50 mM Tris-HCl pH 7.9, 150 mM NaCl, 5 mM MgCl2; absorbance at 350 nm over 40 min; dimers to polymers

Protein | binding result [1] | stoichiometry N [3] | other results
GBP1 Δ207-216, non-farnesylated (natural protein, human, UniProt P32455 1-592, looked up, GBP1, human, full-length construct; also called helix α4’ variant; source: E. coli, pQE-80L, purified (Ni Sepharose HP, Superdex 200)) MASEIHMTGPMCLIENTNGRLMANPEALKILSAITQPMVVVAIVGLYRTGKSYLMNKLAGKKKGFSLGSTVQSHTKGIWMWCVPHPKKPGHILVLLDTEGLGDVEKGDNQNDSWIFALAVLLSSTFVYNSIGTINQQAMDQLYYVTELTHRIRSKSSPDENENEVEDSADFVSFFPDFVWTLRDFSLDLEADGQPLTPDEYLTYSLGGGSETFNLPRLCIRKFFPKKKCFVFDRPVHRRKLAQLEKLQDEELDPEFVQQVADFCSYIFSNSKTKTLSGGIQVNGPRLESLVLTYVNAISSGDLPCMENAVLALAQIENSAAVQKAIAHYEQQMGQKVQLPTETLQELLDLHRDSEREAIEVFIRSSFKDVDHLFQKELAAQLEKKRDDFCKQNQEASSDRCSALLQVIFSPLEEEVKAGIYSKPGGYRLFVQKLQDLKKKYYEEPRKGIQAEEILQTYLKSKESMTDAILQTDQTLTEKEKEIEVERVKAESAQASAKMLQEMQRKNEQMMEQKERSYQEHLKQLTEKMENDRVQLLKEQERTLALKLQEQEQLLKEGFQKESRIMKNEIQDLQTKMRRRKACTIS |  |  | stoichiometry N [1]: 2; fold lower dimerization affinity than wild-type GBP1 [2]: 1.8 fold
GBP1 Δ207-213, farnesylated (natural protein, human, UniProt P32455 1-592, looked up, farnesyl moiety at the C-terminal CaaX box motif, GBP1, human, full-length construct; also called helix α4’ variant) MASEIHMTGPMCLIENTNGRLMANPEALKILSAITQPMVVVAIVGLYRTGKSYLMNKLAGKKKGFSLGSTVQSHTKGIWMWCVPHPKKPGHILVLLDTEGLGDVEKGDNQNDSWIFALAVLLSSTFVYNSIGTINQQAMDQLYYVTELTHRIRSKSSPDENENEVEDSADFVSFFPDFVWTLRDFSLDLEADGQPLTPDEYLTYSLGGGSGGGSQKDETFNLPRLCIRKFFPKKKCFVFDRPVHRRKLAQLEKLQDEELDPEFVQQVADFCSYIFSNSKTKTLSGGIQVNGPRLESLVLTYVNAISSGDLPCMENAVLALAQIENSAAVQKAIAHYEQQMGQKVQLPTETLQELLDLHRDSEREAIEVFIRSSFKDVDHLFQKELAAQLEKKRDDFCKQNQEASSDRCSALLQVIFSPLEEEVKAGIYSKPGGYRLFVQKLQDLKKKYYEEPRKGIQAEEILQTYLKSKESMTDAILQTDQTLTEKEKEIEVERVKAESAQASAKMLQEMQRKNEQMMEQKERSYQEHLKQLTEKMENDRVQLLKEQERTLALKLQEQEQLLKEGFQKESRIMKNEIQDLQTKMRRRKACTIS | binds |  | 
GBP1 Δ207-216, farnesylated (natural protein, human, UniProt P32455 1-592, looked up, farnesyl moiety at the C-terminal CaaX box motif, GBP1, human, full-length construct; also called helix α4’ variant) MASEIHMTGPMCLIENTNGRLMANPEALKILSAITQPMVVVAIVGLYRTGKSYLMNKLAGKKKGFSLGSTVQSHTKGIWMWCVPHPKKPGHILVLLDTEGLGDVEKGDNQNDSWIFALAVLLSSTFVYNSIGTINQQAMDQLYYVTELTHRIRSKSSPDENENEVEDSADFVSFFPDFVWTLRDFSLDLEADGQPLTPDEYLTYSLGGGSETFNLPRLCIRKFFPKKKCFVFDRPVHRRKLAQLEKLQDEELDPEFVQQVADFCSYIFSNSKTKTLSGGIQVNGPRLESLVLTYVNAISSGDLPCMENAVLALAQIENSAAVQKAIAHYEQQMGQKVQLPTETLQELLDLHRDSEREAIEVFIRSSFKDVDHLFQKELAAQLEKKRDDFCKQNQEASSDRCSALLQVIFSPLEEEVKAGIYSKPGGYRLFVQKLQDLKKKYYEEPRKGIQAEEILQTYLKSKESMTDAILQTDQTLTEKEKEIEVERVKAESAQASAKMLQEMQRKNEQMMEQKERSYQEHLKQLTEKMENDRVQLLKEQERTLALKLQEQEQLLKEGFQKESRIMKNEIQDLQTKMRRRKACTIS | binds |  | 
GBP1 Δ207-213, non-farnesylated (natural protein, human, UniProt P32455 1-592, looked up, GBP1, human, full-length construct; also called helix α4’ variant; source: E. coli, pQE-80L, purified (Ni Sepharose HP, Superdex 200)) MASEIHMTGPMCLIENTNGRLMANPEALKILSAITQPMVVVAIVGLYRTGKSYLMNKLAGKKKGFSLGSTVQSHTKGIWMWCVPHPKKPGHILVLLDTEGLGDVEKGDNQNDSWIFALAVLLSSTFVYNSIGTINQQAMDQLYYVTELTHRIRSKSSPDENENEVEDSADFVSFFPDFVWTLRDFSLDLEADGQPLTPDEYLTYSLGGGSGGGSQKDETFNLPRLCIRKFFPKKKCFVFDRPVHRRKLAQLEKLQDEELDPEFVQQVADFCSYIFSNSKTKTLSGGIQVNGPRLESLVLTYVNAISSGDLPCMENAVLALAQIENSAAVQKAIAHYEQQMGQKVQLPTETLQELLDLHRDSEREAIEVFIRSSFKDVDHLFQKELAAQLEKKRDDFCKQNQEASSDRCSALLQVIFSPLEEEVKAGIYSKPGGYRLFVQKLQDLKKKYYEEPRKGIQAEEILQTYLKSKESMTDAILQTDQTLTEKEKEIEVERVKAESAQASAKMLQEMQRKNEQMMEQKERSYQEHLKQLTEKMENDRVQLLKEQERTLALKLQEQEQLLKEGFQKESRIMKNEIQDLQTKMRRRKACTIS |  |  | stoichiometry N [1]: 2; fold lower dimerization affinity than wild-type GBP1 [2]: 3 fold
isolated LG domain of GBP1 Δ207-213 (domain or fragment, human, UniProt P32455 1-317, looked up, LG domain of GBP1, human; stop codon in place of A318; also called α4’ variant LG domain construct; source: E. coli, pQE-80L, purified (Ni Sepharose HP, Superdex 200)) MASEIHMTGPMCLIENTNGRLMANPEALKILSAITQPMVVVAIVGLYRTGKSYLMNKLAGKKKGFSLGSTVQSHTKGIWMWCVPHPKKPGHILVLLDTEGLGDVEKGDNQNDSWIFALAVLLSSTFVYNSIGTINQQAMDQLYYVTELTHRIRSKSSPDENENEVEDSADFVSFFPDFVWTLRDFSLDLEADGQPLTPDEYLTYSLGGGSGGGSQKDETFNLPRLCIRKFFPKKKCFVFDRPVHRRKLAQLEKLQDEELDPEFVQQVADFCSYIFSNSKTKTLSGGIQVNGPRLESLVLTYVNAISSGDLPCMENAVL |  | 2 | 
isolated LG domain of GBP1 Δ207-216 (domain or fragment, human, UniProt P32455 1-317, looked up, LG domain of GBP1, human; stop codon in place of A318; also called α4’ variant LG domain construct; source: E. coli, pQE-80L, purified (Ni Sepharose HP, Superdex 200)) MASEIHMTGPMCLIENTNGRLMANPEALKILSAITQPMVVVAIVGLYRTGKSYLMNKLAGKKKGFSLGSTVQSHTKGIWMWCVPHPKKPGHILVLLDTEGLGDVEKGDNQNDSWIFALAVLLSSTFVYNSIGTINQQAMDQLYYVTELTHRIRSKSSPDENENEVEDSADFVSFFPDFVWTLRDFSLDLEADGQPLTPDEYLTYSLGGGSETFNLPRLCIRKFFPKKKCFVFDRPVHRRKLAQLEKLQDEELDPEFVQQVADFCSYIFSNSKTKTLSGGIQVNGPRLESLVLTYVNAISSGDLPCMENAVL |  | 2 | 
isolated LG domain of GBP1 Δ207-223 (domain or fragment, human, UniProt P32455 1-317, looked up, LG domain of GBP1, human; stop codon in place of A318; also called α4’ variant LG domain construct; source: E. coli, pQE-80L, purified (Ni Sepharose HP, Superdex 200)) MASEIHMTGPMCLIENTNGRLMANPEALKILSAITQPMVVVAIVGLYRTGKSYLMNKLAGKKKGFSLGSTVQSHTKGIWMWCVPHPKKPGHILVLLDTEGLGDVEKGDNQNDSWIFALAVLLSSTFVYNSIGTINQQAMDQLYYVTELTHRIRSKSSPDENENEVEDSADFVSFFPDFVWTLRDFSLDLEADGQPLTPDEYLTYSLGGGSLCIRKFFPKKKCFVFDRPVHRRKLAQLEKLQDEELDPEFVQQVADFCSYIFSNSKTKTLSGGIQVNGPRLESLVLTYVNAISSGDLPCMENAVL |  | 2 | 
GBP1 D199A, farnesylated (natural protein, human, UniProt P32455 1-592, looked up, farnesyl moiety at the C-terminal CaaX box motif, GBP1, human, full-length construct with D199A in helix α4; also called pivot point mutant) MASEIHMTGPMCLIENTNGRLMANPEALKILSAITQPMVVVAIVGLYRTGKSYLMNKLAGKKKGFSLGSTVQSHTKGIWMWCVPHPKKPGHILVLLDTEGLGDVEKGDNQNDSWIFALAVLLSSTFVYNSIGTINQQAMDQLYYVTELTHRIRSKSSPDENENEVEDSADFVSFFPDFVWTLRDFSLDLEADGQPLTPAEYLTYSLKLKKGTSQKDETFNLPRLCIRKFFPKKKCFVFDRPVHRRKLAQLEKLQDEELDPEFVQQVADFCSYIFSNSKTKTLSGGIQVNGPRLESLVLTYVNAISSGDLPCMENAVLALAQIENSAAVQKAIAHYEQQMGQKVQLPTETLQELLDLHRDSEREAIEVFIRSSFKDVDHLFQKELAAQLEKKRDDFCKQNQEASSDRCSALLQVIFSPLEEEVKAGIYSKPGGYRLFVQKLQDLKKKYYEEPRKGIQAEEILQTYLKSKESMTDAILQTDQTLTEKEKEIEVERVKAESAQASAKMLQEMQRKNEQMMEQKERSYQEHLKQLTEKMENDRVQLLKEQERTLALKLQEQEQLLKEGFQKESRIMKNEIQDLQTKMRRRKACTIS |  |  | binding result [4]: binds
GBP1 D199A, non-farnesylated (natural protein, human, UniProt P32455 1-592, looked up, GBP1, human, full-length construct with D199A in helix α4; also called pivot point mutant; source: E. coli, pQE-80L, purified (Ni Sepharose HP, Superdex 200)) MASEIHMTGPMCLIENTNGRLMANPEALKILSAITQPMVVVAIVGLYRTGKSYLMNKLAGKKKGFSLGSTVQSHTKGIWMWCVPHPKKPGHILVLLDTEGLGDVEKGDNQNDSWIFALAVLLSSTFVYNSIGTINQQAMDQLYYVTELTHRIRSKSSPDENENEVEDSADFVSFFPDFVWTLRDFSLDLEADGQPLTPAEYLTYSLKLKKGTSQKDETFNLPRLCIRKFFPKKKCFVFDRPVHRRKLAQLEKLQDEELDPEFVQQVADFCSYIFSNSKTKTLSGGIQVNGPRLESLVLTYVNAISSGDLPCMENAVLALAQIENSAAVQKAIAHYEQQMGQKVQLPTETLQELLDLHRDSEREAIEVFIRSSFKDVDHLFQKELAAQLEKKRDDFCKQNQEASSDRCSALLQVIFSPLEEEVKAGIYSKPGGYRLFVQKLQDLKKKYYEEPRKGIQAEEILQTYLKSKESMTDAILQTDQTLTEKEKEIEVERVKAESAQASAKMLQEMQRKNEQMMEQKERSYQEHLKQLTEKMENDRVQLLKEQERTLALKLQEQEQLLKEGFQKESRIMKNEIQDLQTKMRRRKACTIS | binds |  | 
GBP1 D199K, non-farnesylated (natural protein, human, UniProt P32455 1-592, looked up, GBP1, human, full-length construct with D199K in helix α4; also called pivot point mutant; source: E. coli, pQE-80L, purified (Ni Sepharose HP, Superdex 200)) MASEIHMTGPMCLIENTNGRLMANPEALKILSAITQPMVVVAIVGLYRTGKSYLMNKLAGKKKGFSLGSTVQSHTKGIWMWCVPHPKKPGHILVLLDTEGLGDVEKGDNQNDSWIFALAVLLSSTFVYNSIGTINQQAMDQLYYVTELTHRIRSKSSPDENENEVEDSADFVSFFPDFVWTLRDFSLDLEADGQPLTPKEYLTYSLKLKKGTSQKDETFNLPRLCIRKFFPKKKCFVFDRPVHRRKLAQLEKLQDEELDPEFVQQVADFCSYIFSNSKTKTLSGGIQVNGPRLESLVLTYVNAISSGDLPCMENAVLALAQIENSAAVQKAIAHYEQQMGQKVQLPTETLQELLDLHRDSEREAIEVFIRSSFKDVDHLFQKELAAQLEKKRDDFCKQNQEASSDRCSALLQVIFSPLEEEVKAGIYSKPGGYRLFVQKLQDLKKKYYEEPRKGIQAEEILQTYLKSKESMTDAILQTDQTLTEKEKEIEVERVKAESAQASAKMLQEMQRKNEQMMEQKERSYQEHLKQLTEKMENDRVQLLKEQERTLALKLQEQEQLLKEGFQKESRIMKNEIQDLQTKMRRRKACTIS | binds |  | 
